Laboratory results from patent publication US20250221936A1, “ENGINEERED HEMICHANNELS, ENGINEERED VESICLES, AND USES THEREOF” (VIRGINIA TECH INTELLECTUAL PROPERTIES, INC., priority 2018, published 2025).
“Also recorded” adds a separate entry of the source.

Assays:
ZO-1 PDZ2 = target: T1, ZO-1 PDZ2 (Homo sapiens, UniProt Q07157); assay: Protein thermal shift assay, ZO-1 PDZ2; type: binding; settings: 500 μg/ml protein, 25-100 μM peptide
T1 construct: the second of the three PDZ (PDZ2) domains of ZO-1; made in house; host or cells: E. coli BL21
T1 sequence (Q07157 186-264 limits assumed): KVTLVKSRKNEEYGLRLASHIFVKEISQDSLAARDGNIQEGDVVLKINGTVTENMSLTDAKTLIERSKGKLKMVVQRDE
Procedure: (§1) Thermal stability of recombinant GST-PDZ2 or Cx43 CT in the presence or absence of peptides was determined in a 96-well format. Each assay well was composed of 500 μg/ml protein, 25-100 μM of each peptide in PBS buffer, pH7.4. All assays were performed independently six times. Samples were generally prepared in 96-well plates at final volumes of 20 μL. The fluorescent dye SYPRO Orange (5000× concentrate in DMSO, ThermoFisher, S6650) was added to a final concentration of 8X. Reactions were run on QuantStudio 6 Flex Real-Time PCR system (Applied Biosystems, part of Life Technologies Corporation, CA) according to the manufacturer's recommendations using a melt protocol in 0.05-degree/see increments from 25° C. to 95° C. The Reporter Dye was “ROX” and quencher Dye and passive reference were selected as “None” for the melt curve according to manufacturer's instructions. The data were analyzed using Protein Thermal Shift™ Software v1.3 package (Applied Biosystems, CA).

Cx43 CT = target: T2, Cx43 CT (Rattus norvegicus, UniProt P08050); assay: Protein thermal shift assay, Cx43 CT; type: binding; settings: 500 μg/ml protein, 25-100 μM peptide
T2 construct: CT: amino acids 255 to 382) alone; GST (N); made in house; host or cells: E. coli BL21
T2 sequence (P08050 255-382): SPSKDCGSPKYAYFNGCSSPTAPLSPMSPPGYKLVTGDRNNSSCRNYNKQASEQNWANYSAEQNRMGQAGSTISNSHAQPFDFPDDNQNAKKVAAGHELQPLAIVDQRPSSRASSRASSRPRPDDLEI
Procedure: as §1

adult mouse hearts = assay: Langendorff ischemia-reperfusion (I/R) injury, LV contractility; settings: for recovery of LV contractile performance during reperfusion: pre-ischemic 20-minute peptide infusion, 20 min ischemia, 40 min reperfusion
Procedure: Male, 3-month-old, body weight 25±5 g C57BL/6 mice were used for this study and obtained from Charles River. Animals were randomly assigned to experimental groups and Left ventricular (LV) function was measured and myocardial ischemia-reperfusion injury (I/R) was induced as previously described^23. Briefly, 15 minutes after the injection of heparin at a dose of 200U/10 g body weight, the mouse was anesthetized by inhalation of isoflurane vapor and subjected to cervical dislocation upon the cessation of respiration. Thoracotomy was immediately performed and the heart excised. The heart was arrested in ice-cold Krebs-Henseleit (KH) buffer (in mM: 25 NaHCO3, 0.5 EDTA, 5.3 KCl, 1.2 MgSO4, 0.5 pyruvate, 118 NaCl, 10 glucose, 2.5 CaCl2). The aorta was isolated and cannulated in a Langendorff perfusion system. The heart was then perfused at a constant pressure of 75 mmHg with KH buffer, which was continually bubbled with 5% CO2/95% O2 at 37° C. Effluent from the Thebesian veins was drained by a thin polyethylene tube (PE-10) pierced through the apex of the LV. A water-filled balloon made of polyvinylchloride film was inserted in the LV and connected to a blood pressure transducer (Harvard Apparatus, 733866, MA). After a 30-minute stabilization period, a balloon volume (BV) generating an LV end-diastolic-pressure (EDP) of 0 mmHg, was determined for the heart. The BV was then increased stepwise up through 1, 2, 5, 8, 10, 12, 15, 18, 20, 25, 30 μl increments of 1-5 μl and contractile performance were recorded for 10 seconds at each step. The indexes of cardiac function were amplified by a Transducer Amplifier Module (Harvard Apparatus, 730065, MA). Data was recorded and analyzed using PowerLab 4/35 (ADInstruments, PL3504, CO) and LabChart V7 (ADInstruments, CO). The BV was then adjusted to set EDP at about 8-10 mmHg and held constant during the ensuing steps of the protocol. Baseline function (determined by EDP at about 8-10 mmHg) was recorded for 5 minutes. The perfused beating heart were then treated with freshly prepared peptide stocks (0.2 mM), which were infused using syringe pump (Kent Sci, CT) into the perfusion buffer in a mixing chamber above the heart at 5% of coronary flow rate, to deliver final concentrations of 10-50 μM or equivalent vehicle for 20 minutes. At the end of the peptide infusion period hearts were subjected to global, no-flow normothermic ischemia by turning off the perfusion flow for 20 min, followed by a reperfusion phase for 40 min. BV was retaken through the stepwise sequence of 1-5 μl increments between 1 and 30 μl, with contractile performance again being recorded for 10 seconds at each step. Cardiac LV function was recorded throughout the procedure. In the case of post-ischemic treatment with alpha CT11 peptide, peptide infusion was begun at the initiation of the reperfusion phase, continued for 20 minutes and then contractile function by BV increments was taken as per the other hearts. A set of hearts were freeze-clamped immediately after peptide infusion for Western blotting. The protocol is illustrated in FIG. 9.

Sequence | PDZ2 melt temperature (Tm) (ZO-1 PDZ2) | PDZ2 melt temperature (Tm) (ZO-1 PDZ2; listed as M3) | Cx43 CT melt temperature (Tm) (Cx43 CT) | recovery of LV contractile performance during reperfusion (adult mouse hearts) | recovery of LV function (adult mouse hearts; 20-minute peptide infusion at initiation of reperfusion (post-ischemic)) | cardiac muscle loss (adult mouse hearts; ex vivo I/R injury)
RQPKIWFPNRRKPWKKRPRPDDLAI [M3 DDLAI] | evidence of significant interaction with its ZO-1-binding domain | significantly increase the Tm of | no propensity to alter Cx43 CT thermal stability | no ability to improve recovery | – | –
RQPKIWFPNRRKPWKKRPRPDDLEI [alpha CT1] | significantly increase the Tm of; also recorded: increased the melt temperature of PDZ2 in a dose-dependent manner | – | highly significant decreases in melt temperature | notable recovery of LV function during reperfusion; also recorded: significant functional recovery after I/R injury | did not result in significant recovery of LV function | reduce cardiac muscle loss by more than half
RQPKIWFPNRRKPWKKRPRPDDLE [alpha CT1-I] | PDZ2 interaction incompetent | – | highly significant decreases in melt temperature | significant functional recovery after I/R injury | – | –
RQPKIWFPNRRKPWKK RPRPAALAI (RQPKIWFPNRRKPWKKRPRPAALAI) [M1 AALAI] | did not alter the melt temperature of PDZ2 | – | no propensity to alter Cx43 CT thermal stability | no ability to improve recovery | – | –
